Results as given in patent US20070092444A1, “Inhibition of inward sodium currents in cancer” (priority 2003, published 2007).
Like-named read-outs stand apart in the source and are kept apart here.

What was measured:
[1] = molecular target: T1, ASIC1 (recombinant: in vitro translated in proteoliposomes, expressed in Xenopus oocytes, reconstituted in planar lipid bilayers) (UniProt P78348); assay: cell-based or functional assay
T1 sequence (looked up): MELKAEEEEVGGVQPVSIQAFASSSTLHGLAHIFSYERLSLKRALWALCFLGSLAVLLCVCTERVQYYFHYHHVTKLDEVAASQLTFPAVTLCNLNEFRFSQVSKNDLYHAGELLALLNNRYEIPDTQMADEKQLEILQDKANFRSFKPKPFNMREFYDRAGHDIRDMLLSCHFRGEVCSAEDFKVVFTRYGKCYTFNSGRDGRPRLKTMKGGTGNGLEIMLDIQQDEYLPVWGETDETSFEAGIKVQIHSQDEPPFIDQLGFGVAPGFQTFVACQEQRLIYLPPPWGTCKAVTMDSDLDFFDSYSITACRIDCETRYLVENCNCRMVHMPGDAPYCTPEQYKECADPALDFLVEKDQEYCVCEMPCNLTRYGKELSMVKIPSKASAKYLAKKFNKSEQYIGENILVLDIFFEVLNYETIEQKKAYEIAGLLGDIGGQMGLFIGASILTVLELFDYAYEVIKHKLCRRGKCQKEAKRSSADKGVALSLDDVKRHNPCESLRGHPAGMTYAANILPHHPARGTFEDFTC

[2] = molecular target: ASIC1+ASIC2+γ-hENaC heteromeric channel (co-expressed in Xenopus oocytes; oocyte membrane vesicles in planar lipid bilayers) (human) (UniProt P78348); assay: cell-based or functional assay
[3] = molecular target: T1, ASIC1 (recombinant: in vitro translated in proteoliposomes, expressed in Xenopus oocytes, reconstituted in planar lipid bilayers)
ASIC1 = molecular target: T2, ASIC1 (Homo sapiens, UniProt P78348); assay: Wild-type ASIC1 in planar lipid bilayers, single channel recording; format: biochemical; details: PKC isoforms
T2 sequence (P78348 1-528): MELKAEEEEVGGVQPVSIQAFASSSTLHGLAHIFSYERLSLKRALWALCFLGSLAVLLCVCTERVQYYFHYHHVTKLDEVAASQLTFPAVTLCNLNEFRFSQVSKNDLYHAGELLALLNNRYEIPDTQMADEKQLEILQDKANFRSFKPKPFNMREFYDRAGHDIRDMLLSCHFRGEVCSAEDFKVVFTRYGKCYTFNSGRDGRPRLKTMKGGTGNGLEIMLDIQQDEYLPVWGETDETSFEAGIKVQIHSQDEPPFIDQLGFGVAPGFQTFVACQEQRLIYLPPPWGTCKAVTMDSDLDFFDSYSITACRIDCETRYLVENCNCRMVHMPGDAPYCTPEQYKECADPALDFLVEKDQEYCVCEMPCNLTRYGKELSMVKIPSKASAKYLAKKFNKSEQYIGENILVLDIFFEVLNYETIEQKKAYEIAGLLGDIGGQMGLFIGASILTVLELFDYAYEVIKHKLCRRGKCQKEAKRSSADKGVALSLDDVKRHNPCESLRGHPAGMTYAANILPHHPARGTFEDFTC
Protocol: An expanded time scale is shown below each trace.
Wild-type ASIC1 incorporated into planar lipid bilayers at neutral pH or at acidic extracellular pH was also examined.
Membrane potential was held at −60 mV, and the pHo was step decreased to 4.0 for 10 s, and then returned to 7.4 for 30 s before repeating the sequence.
Control single channel were record for ASIC1 containing channels in bilayers bathed with symmetrical 100 mM NaCl, 10 mM MOPS, pH 6.2. Holding potential was +100 mV referred to the virtually grounded trans chamber. For illustration purposes, data shown were digitally filtered at 100 Hz using pCLAMP software (Axon Instruments) subsequent to acquisition of the analog signal filtered at 300 Hz with an 8-pole Bessel filter before acquisition at 1 ms per point. An expanded time scale is shown below each trace (FIG. 21).
Representative dwell-time histograms were constructed following the events analyses performed using pCLAMP software (Axon Instruments) on single channel recordings of 10 min in duration filtered at 300 Hz with an 8-pole Bessel filter before acquisition at 1 ms per point using pCLAMP software and hardware. The event detection thresholds were 50% in amplitude of transition between closed and open states, and 3 ms in duration. Closed and open time constants shown were determined by fitting the closed and open time histograms to the probability density function (Sigworth and Sine, 1987), and using the Simplex least square routine of pSTAT. Number of bins per decade in all histograms was 16.

[4] = molecular target: T1, ASIC1 (recombinant: in vitro translated in proteoliposomes, expressed in Xenopus oocytes, reconstituted in planar lipid bilayers); assay: cell-based or functional assay; remark: listed apart in the source

PKCε (enzyme) showed a reversal of the PKCβI+PKCβII inhibition of ASIC1 activity in bilayers (PKCε and PKCζ in combination) [1] of 5 fold excess.

Molecule Syntaxin 1A GST fusion protein has a decrease in channel open probability (Po) in planar lipid bilayers, 25 µM syntaxin 1A in the cis chamber [2] of 40%.

For PKCβI, the “ASIC1 activity in planar lipid bilayers (PKCβI and PKCβII added in combination)” value [3] was “PKC holoenzyme or the combination of PKCβI and PKCβII isoforms inhibited ASIC1” and the “in vitro phosphorylation of ASIC1” value [3] was “PKC holoenzyme, PKCβI, PKCβII, PKCδ, PKCε, and PKCζ phosphorylated ASIC1 in vitro”.

B1: PKCε: PKC isoform (protein, UniProt Q02156 1-737, looked up)
Protein kinase C epsilon type: MVVFNGLLKIKICEAVSLKPTAWSLRHAVGPRPQTFLLDPYIALNVDDSRIGQTATKQKTNSPAWHDEFVTDVCNGRKIELAVFHDAPIGYDDFVANCTIQFEELLQNGSRHFEDWIDLEPEGRVYVIIDLSGSSGEAPKDNEERVFRERMRPRKRQGAVRRRVHQVNGHKFMATYLRQPTYCSHCRDFIWGVIGKQGYQCQVCTCVVHKRCHELIITKCAGLKKQETPDQVGSQRFSVNMPHKFGIHNYKVPTFCDHCGSLLWGLLRQGLQCKVCKMNVHRRCETNVAPNCGVDARGIAKVLADLGVTPDKITNSGQRRKKLIAGAESPQPASGSSPSEEDRSKSAPTSPCDQEIKELENNIRKALSFDNRGEEHRAASSPDGQLMSPGENGEVRQGQAKRLGLDEFNFIKVLGKGSFGKVMLAELKGKDEVYAVKVLKKDVILQDDDVDCTMTEKRILALARKHPYLTQLYCCFQTKDRLFFVMEYVNGGDLMFQIQRSRKFDEPRSRFYAAEVTSALMFLHQHGVIYRDLKLDNILLDAEGHCKLADFGMCKEGILNGVTTTTFCGTPDYIAPEILQELEYGPSVDWWALGVLMYEMMAGQPPFEADNEDDLFESILHDDVLYPVWLSKEAVSILKAFMTKNPHKRLGCVASQNGEDAIKQHPFFKEIDWVLLEQKKIKPPFKPRIKTKRDVNNFDQDFTREEPVLTLVDEAIVKQINQEEFKGFSYFGEDLMP
With B1 the “effect on ASIC1 activity in bilayers” value (ASIC1) was “Neither PKCε, PKCζ, nor their combination had any effect”.

B2: PKCζ (enzyme, UniProt Q05513 1-592, looked up, species assumed)
Protein kinase C zeta type: MPSRTGPKMEGSGGRVRLKAHYGGDIFITSVDAATTFEELCEEVRDMCRLHQQHPLTLKWVDSEGDPCTVSSQMELEEAFRLARQCRDEGLIIHVFPSTPEQPGLPCPGEDKSIYRRGARRWRKLYRANGHLFQAKRFNRRAYCGQCSERIWGLARQGYRCINCKLLVHKRCHGLVPLTCRKHMDSVMPSQEPPVDDKNEDADLPSEETDGIAYISSSRKHDSIKDDSEDLKPVIDGMDGIKISQGLGLQDFDLIRVIGRGSYAKVLLVRLKKNDQIYAMKVVKKELVHDDEDIDWVQTEKHVFEQASSNPFLVGLHSCFQTTSRLFLVIEYVNGGDLMFHMQRQRKLPEEHARFYAAEICIALNFLHERGIIYRDLKLDNVLLDADGHIKLTDYGMCKEGLGPGDTTSTFCGTPNYIAPEILRGEEYGFSVDWWALGVLMFEMMAGRSPFDIITDNPDMNTEDYLFQVILEKPIRIPRFLSVKASHVLKGFLNKDPKERLGCRPQTGFSDIKSHAFFRSIDWDLLEKKQALPPFQPQITDDYGLDNFDTQFTSEPVQLTPDDEDAIKRIDQSEFEGFEYINPLLLSTEESV
With B2 the “ASIC1 activity in planar lipid bilayers” value [3] was “Neither PKCε, PKCζ, nor their combination had any effect on ASIC1 activity in bilayers”, the “in vitro phosphorylation of ASIC1” value [3] was “PKC holoenzyme, PKCβI, PKCβII, PKCδ, PKCε, and PKCζ phosphorylated ASIC1 in vitro” and the reversal of the PKCβI+PKCβII inhibition of ASIC1 activity in bilayers (PKCε and PKCζ in combination) [4] was 5 fold excess. For the same molecule, the “effect on ASIC1 activity in bilayers” value (ASIC1) was “Neither PKCε, PKCζ, nor their combination had any effect”.
